The assay deals with human Low Density Lipoprotein receptor (hLDL-R) (human, UniProt P01130 22-860). Put plainly: cell-based or functional assay.

One molecule from patent publication US20180023071A1 (PRONASCI, published 2018) can be followed below.

Bridges are numbered along the chain shown (N, C = ends). Where no end group is shown, it is not given here.

Sequence of human Low Density Lipoprotein receptor (hLDL-R) (P01130 22-860): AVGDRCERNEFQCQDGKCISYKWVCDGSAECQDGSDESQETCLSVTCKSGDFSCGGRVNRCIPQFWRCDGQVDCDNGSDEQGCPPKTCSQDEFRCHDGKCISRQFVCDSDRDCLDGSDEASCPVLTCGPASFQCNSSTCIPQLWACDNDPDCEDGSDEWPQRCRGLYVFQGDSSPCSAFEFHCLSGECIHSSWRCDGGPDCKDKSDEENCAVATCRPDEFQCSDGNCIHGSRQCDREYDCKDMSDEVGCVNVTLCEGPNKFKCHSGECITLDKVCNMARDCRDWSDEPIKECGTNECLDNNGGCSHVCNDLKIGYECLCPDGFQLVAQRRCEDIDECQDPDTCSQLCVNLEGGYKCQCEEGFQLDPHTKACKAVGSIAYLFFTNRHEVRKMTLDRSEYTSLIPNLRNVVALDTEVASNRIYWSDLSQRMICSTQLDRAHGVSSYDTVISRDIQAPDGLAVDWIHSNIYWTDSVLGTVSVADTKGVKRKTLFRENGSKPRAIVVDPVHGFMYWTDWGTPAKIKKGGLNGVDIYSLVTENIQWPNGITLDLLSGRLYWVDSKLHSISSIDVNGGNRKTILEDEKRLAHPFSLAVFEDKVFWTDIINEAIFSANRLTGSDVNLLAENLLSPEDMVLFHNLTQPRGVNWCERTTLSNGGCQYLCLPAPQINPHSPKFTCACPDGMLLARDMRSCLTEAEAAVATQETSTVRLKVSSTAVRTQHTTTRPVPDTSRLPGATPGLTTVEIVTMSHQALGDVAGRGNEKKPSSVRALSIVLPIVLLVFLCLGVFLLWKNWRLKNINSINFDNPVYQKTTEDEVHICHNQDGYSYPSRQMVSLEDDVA

For GEDIIGASSDCSTCFVSQSG (disulfide 11-14) [CP3 (Loop-3 peptide), S-S bridged cyclic hPCSK9 365-384], the “LDL-R level in HepG2 cells (western blot, relative to TR), CP3 at 50 µM” value is around 3.5 fold.
